Results from PMC11624282, “PARP1 condensates differentially partition DNA repair proteins and enhance DNA ligation”.

Key:
mCherry-PARP1 [1] = molecular target: T1, mCherry-PARP1 (Homo sapiens, UniProt P09874 1-1014); test: condensation, fluorescence microscopy; 4 µM protein; lost at high salt; reentrant at high DNA; Condensation (DIC, PARP1 truncations): 20 mM Tris pH 7.5, 50 mM NaCl, 7.5 mM MgCl2, 1 mM DTT; DNA curtains: 25-150 mM NaCl tested; temperature not stated; details: protein: recombinant; tags: mCherry (pET-SUMO-mCherry-PARP1); label: Cy5 at 5' of S10 (labelled version, 10% where stated); three annealed oligos, central nick, blunt ends
PARP1 = PARP1 (Homo sapiens, UniProt P09874 1-1014); test: single-molecule oligo capture on lambda DNA; 5 nM PARP1, 20 nM oligo; 98% of oligos dissociate with 500 µM NAD+; Condensation (DIC, PARP1 truncations): 20 mM Tris pH 7.5, 50 mM NaCl, 7.5 mM MgCl2, 1 mM DTT; DNA curtains: 25-150 mM NaCl tested; temperature not stated; details: protein: recombinant; tags: none stated after His-SUMO cleavage; label: 3' ATTO647N on S4; blunt
mCherry-PARP1 [2] = molecular target: T1, mCherry-PARP1; test: condensation, fluorescence microscopy; 4 µM protein; Condensation (DIC, PARP1 truncations): 20 mM Tris pH 7.5, 50 mM NaCl, 7.5 mM MgCl2, 1 mM DTT; DNA curtains: 25-150 mM NaCl tested; temperature not stated; details: protein: recombinant; tags: mCherry (pET-SUMO-mCherry-PARP1); dumbbell: two hairpins with a single nick

T1 sequence (P09874 whole entry, the tested form may be a part): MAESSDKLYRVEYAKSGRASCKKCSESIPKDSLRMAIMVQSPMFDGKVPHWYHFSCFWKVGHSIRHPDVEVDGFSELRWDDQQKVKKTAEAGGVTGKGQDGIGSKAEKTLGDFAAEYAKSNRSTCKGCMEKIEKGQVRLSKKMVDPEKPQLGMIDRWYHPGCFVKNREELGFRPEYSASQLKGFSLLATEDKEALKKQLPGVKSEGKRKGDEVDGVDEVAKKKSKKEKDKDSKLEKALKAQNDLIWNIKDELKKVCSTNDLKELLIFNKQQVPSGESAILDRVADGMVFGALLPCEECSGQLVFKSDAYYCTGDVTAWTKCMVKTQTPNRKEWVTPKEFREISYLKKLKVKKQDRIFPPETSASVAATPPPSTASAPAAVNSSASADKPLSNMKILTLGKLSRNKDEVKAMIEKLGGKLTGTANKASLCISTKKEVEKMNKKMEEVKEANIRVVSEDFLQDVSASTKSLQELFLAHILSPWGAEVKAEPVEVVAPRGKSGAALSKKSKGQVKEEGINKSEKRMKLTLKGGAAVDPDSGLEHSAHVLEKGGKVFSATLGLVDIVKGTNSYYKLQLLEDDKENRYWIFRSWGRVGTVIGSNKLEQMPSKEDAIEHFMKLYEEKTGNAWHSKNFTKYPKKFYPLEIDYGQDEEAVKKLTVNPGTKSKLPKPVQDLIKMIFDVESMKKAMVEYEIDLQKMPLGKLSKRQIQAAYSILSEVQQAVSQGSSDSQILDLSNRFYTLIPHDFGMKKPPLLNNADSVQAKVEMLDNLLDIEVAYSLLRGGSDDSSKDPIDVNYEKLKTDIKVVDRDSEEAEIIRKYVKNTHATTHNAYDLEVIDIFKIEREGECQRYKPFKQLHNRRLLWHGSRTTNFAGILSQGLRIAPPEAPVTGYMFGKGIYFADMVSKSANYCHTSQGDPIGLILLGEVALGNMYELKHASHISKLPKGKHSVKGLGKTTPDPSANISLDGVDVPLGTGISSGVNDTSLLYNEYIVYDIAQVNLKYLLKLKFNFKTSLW
Chain of PARP1 (P09874 whole entry, the tested form may be a part): as above

B1: triplex DNA (nicked) (dsDNA)
DNA 1: GCTTAGCTTGGAATCGTATCATGTACACTCGTGTGCCGTGTAGACCGTGCC
DNA 2: TGTACATGATACGATTCCAAGCTAAGC
DNA 3: GGCACGGTCTACACGGCACACGAG
modifications: 5'-phosphate on S9
Question: Does B1 bind (mCherry-PARP1 [1])?
Answer: binds

B2: 60 bp DNA-ATTO647N (dsDNA)
DNA 1: ACGAAGTCTTATGGCAAAACCGATGGACTATGTTTCGGGTAGCACCAGAAGTCTATAACA
DNA 2: TGTTATAGACTTCTGGTGCTACCCGAAACATAGTCCATCGGTTTTGCCATAAGACTTCGT
modifications: 5' BioTEG on S3
Question: Does B2 bind (PARP1)?
Answer: binds

Question: Does GCTGGCTTCGTAAGAAGCCAGCTCGCGGTCAGCTTGCTGACCGCG (structured_DNA, 5'-phosphate) [nicked dumbbell DNA] bind (mCherry-PARP1 [2])?
Answer: binds
